In publication PMC6335422 (Nature Communications, 2019):
Where no end group is shown, it is not given here.

B1: mutant Mmi^W112A protein: full-length Mmi1 carrying W112A, expressed in S. pombe (protein)
chain: MSNTNFSTSRSSKSIPELPNLEALRSLWPPPSLNESGDTRSVWTTHTGEPVASSVLSTSGSNNFSSPLKRPAPESHDAPIGRRLMVDDPRLIKHGKYDFSRHCTDYGHSYEAPYFRSLRRESMLYHTSGSYPESQPPYSSYSTDAPHYYHAGSESSAYYDSRSRLHGIQPPPKRRTLSPPPRRLADPVVVGSSRYVEEEVYRRPPYTLASEVPSSASAYQAGYSSYPVRSSPQLSHEDTRHGIASSGSTRYPFVPANTRASHSPSLLEPYAHSLPSSVAPVGAYPEKSSYLLSNSSNDSASRKEKPKARASTPPPLNFSRASEHRNEKGERISMINPRVVLDENGISHRSRYFIMLCDNETAIAHAKKTSIWAVKKDSSKRISDAYKKASVYFIFVAQQTYNALGYAQVVSDLNSTELPFWSDSSHAGGVRIKWIKTCNLFSAEISEIVSHMDHGSEARDGMEMMYDEGSRLCTLINYAIMKRIGRDR
modifications: left off: FLAG, end not stated, kept
notes: full-length Mmi1 carrying W112A, expressed in S. pombe

Columns and labels:
Erh1 D68A = molecular target: T1, Erh1 D68A (Schizosaccharomyces pombe, UniProt G2TRN4, D68A); assay: ITC, Mmi1 peptide titrated into Erh1 D68A; type: binding, S. pombe
T1 construct: A region of Erh1 (residues 1–104) was amplified by PCR; made in house; host or cells: Escherichia coli BL21 (Gold)
T1 sequence (G2TRN4 whole entry D68A, the tested form may be a part): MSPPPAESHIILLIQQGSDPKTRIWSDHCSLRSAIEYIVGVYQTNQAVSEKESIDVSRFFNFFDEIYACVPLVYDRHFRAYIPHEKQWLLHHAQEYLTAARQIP
Experimental: (§1) The titration protocol consisted of a single initial injection of 1 µl, followed by 19 injections of 2 µl SUMO-tagged Mmi1 peptides into the sample cell containing Erh1 protein. Thermodynamic data were analyzed with a single-site binding model using MicroCal PEAQ-ITC Analysis Software provided by the manufacturer.

Erh1 R23A = molecular target: T2, Erh1 R23A (Schizosaccharomyces pombe, UniProt G2TRN4, R23A); assay: ITC, Mmi1 peptide titrated into Erh1 R23A; type: binding, S. pombe
T2 construct: A region of Erh1 (residues 1–104) was amplified by PCR; made in house; host or cells: Escherichia coli BL21 (Gold)
T2 sequence (G2TRN4 whole entry R23A, the tested form may be a part): as the sequence (G2TRN4 whole entry D68A, the tested form may be a part) above, with R23A, A68D counted along it
Experimental: as §1

Erh1 E85A = molecular target: T3, Erh1 E85A (Schizosaccharomyces pombe, UniProt G2TRN4, E85A); assay: ITC, Mmi1 peptide titrated into Erh1 E85A; type: binding, S. pombe; details: 293 K, pH 7.5
T3 construct: A region of Erh1 (residues 1–104) was amplified by PCR; made in house; host or cells: Escherichia coli BL21 (Gold)
T3 sequence (G2TRN4 whole entry E85A, the tested form may be a part): as the sequence (G2TRN4 whole entry D68A, the tested form may be a part) above, with A68D, E85A counted along it
Experimental: as §1

[1] = type: physicochemical; details: pH 7.5
Erh1 = assay: GST pull-down of Erh1 with GST-tagged Mmi1 fragments, Coomassie; type: binding, S. pombe; details: GST-Mmi1 fusion incubated with Erh1, glutathione-agarose, SDS-PAGE
Text: Fig. 1 Mmi1 interacts with Erh1 in a 2:2 stoichiometry. a Shown is a schematic representation of the domain architecture of Mmi1. The disorder score from DISOPRED3 Server[62] and the conservation score are shown below. The conservation score is generated by a Protein Residue Conservation Prediction Server[63] from the sequence alignment of Mmi1 orthologues from S. pombe, S. cryophilus, S. octosporus, and S. japonicus. b–d Interactions of GST tagged Mmi1 peptides (GST-Mmi1) with Erh1 visualized by Coomassie blue staining. The indicated GST-Mmi1 fusion proteins or GST alone were incubated with Erh1. The complexes were collected with glutathione-agarose resin and bound proteins were eluted and then subjected to SDS-PAGE. GST or GST-Mmi1 fusion proteins without Erh1 are shown as a negative control. Source data are provided as a Source Data file. e The raw ITC titration data of Erh1 with SUMO tagged Mmi1^95–122 and its fitting curve are shown. KD dissociation constant, DP differential power, N binding stoichiometry, ΔH binding enthalpy. f ITC fitting curves of Erh1 using SUMO tagged Mmi1^95–122 (magenta), Mmi1^106–122 (blue) and Mmi1^95–111 (green) are shown. g Size-exclusion analysis of Erh1 (magenta) and Erh1-Mmi1^95–122 (blue). Marker sizes are 62.9 KDa (Albumin), 46.7 KDa (Ovalbumin), 20.3 KDa (Chymotrypsinogen), 14.6 KDa (Ribonuclease A). Also shown are theoretical monomer sizes (kDa) of Erh1 protein and Mmi1^95–122 peptide TEXT PRINTED IN THE PICTURE: (e) Mmi1^95–122 - Erh1: KD (μM) 0.83±0.19; N (sites) 0.90±0.01; ΔH (kJ per mol) −106±3.02 | (f) Mmi1^95–122: Erh1 KD (μM): 0.83±0.19 | (f) Mmi1^106–122: Erh1 KD (μM): 9.94±1.19 | (f) Mmi1^95–111: Erh1 KD (μM): no binding | (g) Erh1: 13.2 kDa | (g) Mmi1^95–122: 3.5 kDa
A region of Erh1 (residues 1–104) was amplified by PCR from the S. pombe genome and cloned into a modified pET28a (Novagen) vector without a thrombin protease cleavage site (p28a). GST-Mmi1^YTH was sub-cloned from a Mmi1^YTH-p28a construct to a modified PGex-4T1 vector with a TEV protease cleavage site (Tev4T1). […]

Erh1 D27A = molecular target: T4, Erh1 D27A (Schizosaccharomyces pombe, UniProt G2TRN4, D27A); assay: ITC, Mmi1 peptide titrated into Erh1 D27A; type: binding, S. pombe
T4 construct: A region of Erh1 (residues 1–104) was amplified by PCR; made in house; host or cells: Escherichia coli BL21 (Gold)
T4 sequence (G2TRN4 whole entry D27A, the tested form may be a part): as the sequence (G2TRN4 whole entry D68A, the tested form may be a part) above, with D27A, A68D counted along it
Experimental: as §1

Erh1 (Erh1wt) = molecular target: T5, Erh1 (Erh1wt) (Schizosaccharomyces pombe, UniProt G2TRN4); assay: Isothermal titration calorimetry (ITC), SUMO-tagged Mmi1 peptides titrated into wild-type Erh1; type: binding, S. pombe; details: Erh1wt, ITC, 293 K, 20 mM Tris-HCl pH 7.5, 150 mM NaCl, SUMO-tagged Mmi1 peptide, single-site model
T5 construct: A region of Erh1 (residues 1–104) was amplified by PCR; made in house; host or cells: Escherichia coli BL21 (Gold)
T5 sequence (G2TRN4 1-104): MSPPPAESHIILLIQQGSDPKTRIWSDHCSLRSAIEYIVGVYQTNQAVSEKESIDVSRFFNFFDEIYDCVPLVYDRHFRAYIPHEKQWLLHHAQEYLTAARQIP
Experimental: as §1

Erh1-Mmi1 interaction = assay: Co-immunoprecipitation of Erh1-GFP and FLAG-Mmi1 from yeast cells; type: cell-based, S. pombe; details: FLAG-Mmi1 WT replaced with mutant; Erh1-GFP; YEA medium, 32 °C
Experimental: Cells were grown to mid-log phase in rich YEA medium at 32 °C, harvested, and flash-frozen in liquid nitrogen prior to extract preparations. Extracts prepared from yeast cells expressing epitope tagged proteins under the control of native gene promoters were used for immunoprecipitations and Western blot analyses as described. Total protein extracts for western blotting analyses were prepared by trichloroacetic acid (TCA) precipitation. Briefly, cells were lysed using glass beads in 20% TCA buffer. Next, lysates were diluted using 5% TCA buffer and total protein pellets were concentrated by centrifugation at 21,000×g for 5 min. Precipitated protein was dissolved in sodium dodecyl sulfate (SDS) sample buffer prior to resolution in a polyacrylamide gel. For immunoprecipitation experiments, cells were lysed using glass beads in 2X HC lysis buffer (300 mM HEPES buffer pH 7.6, 100 mM KCl, 2 mM EDTA, 0.2% NP-40, and 0.2 mM DTT) containing protease inhibitor cocktail (11697498001, Roche) and 2 mM PMSF. Lysate cleared of cellular debris was incubated with antibody-conjugated beads for immunoprecipitation. […]

Molecule | ΔH (binding enthalpy) (Erh1 D68A; Erh1 D68A, 293 K, pH 7.5) [kJ per mol] | affinity (in words) (Erh1 D68A; Erh1^D68A mutant) | binding affinity (in words) (Erh1 R23A; Erh1 Arg23 substituted with alanine) | ΔH (binding enthalpy) (Erh1 R23A; Erh1 R23A, 293 K, pH 7.5) [kJ per mol] | ΔH (binding enthalpy) (Erh1 E85A) [kJ per mol] | solubility of synthesized peptide [1] | interaction with Erh1 (GST pull-down) (Erh1) | binding affinity (in words) (Erh1 D27A; Erh1 Asp27 substituted with alanine) | ΔH (binding enthalpy) (Erh1 D27A; Erh1 D27A, 293 K, pH 7.5) [kJ per mol] | ΔH (binding enthalpy) (Erh1 (Erh1wt)) [kJ per mol] | ΔH (binding enthalpy) (Erh1 (Erh1wt); listed as Mmi195-11 2) [kJ per mol] | Erh1-Mmi1 interaction (co-immunoprecipitation) (Erh1-Mmi1 interaction)
Mmi1^95–122: Mmi1 fragment, residues 95–122, Erh1-interacting domain (EID) ({SUMO}-GKYDFSRHCTDYGHSYEWPYFRSLRRES; not fully specified) | -47.6±1.30 | reduced | significantly reduced the binding affinity | -24.2±4.87 | -81.9±1.70 | could not be dissolved in the interaction buffer | sufficient for interaction | significantly reduced the binding affinity | -58.8±1.58 | −106±3.02 | -106±3.02 | –
B1 | – | – | – | – | – | – | – | – | – | – | – | drastically diminished the Erh1-Mmi1 interaction
